These results are taken from US20130210077.

Usually Kd stands for the equilibrium constant for the complex coming apart. Broadly, the IC50 is the point on the concentration scale where inhibition reaches its midpoint. A low value points to inhibition by little substance.

In data set [1] the test system is CsnR (ROK-family transcriptional repressor, SSPG_04872) (Streptomyces lividans TK24). Briefly: EMSA. The note with it: 10 mM HEPES pH 7.9, 150 mM KCl, 10% glycerol, poly(dI-dC), room temperature. A general note: Mobility shift assays separate free from complexed probe on a gel.
Data set [2] has the same test system. Briefly: competition.

In data set [1] (SE 0.008 nM), “CTCCAGCCAACAGGAAACTTTCCTAACAGA (double strand) [csnR-WT]” registered a Kd of 0.04 nM.
“CCTCTTCTGGTAGGAAACTGTCCTATCAGT (double strand) [csnA-M1]” displayed an IC50 in data set [2] (competitor vs labeled csnA-WT, +2 mutation, SE logIC50 0.13) of 52.1 nM.
For “CCTCTTCTGGTAGGAAACTTTCCGATCAGT (double strand) [csnA-M2]”, the IC50 in data set [2] (competitor vs labeled csnA-WT, +6 mutation, SE logIC50 0.08) was found to be 2.7 nM. This counts as single-digit nanomolar.
“CCTCTTCTGGTAGGAAACTGTCCGATCAGT (double strand) [csnA-MM]” displayed an IC50 in data set [2] (competitor vs labeled csnA-WT, +2 and +6 mutations, lost most affinity, SE logIC50 0.33) of 105 nM.
“CCTCTTCTGGTAGGAAACTTTCCTATCAGT (double strand) [csnA-WT]” came in with a dissociation constant Kd in data set [1] (SE 0.009 nM) of 0.032 nM. This sequence also registered an IC50 in data set [2] (unlabeled competitor vs 0.03 nM labeled csnA-WT, SE logIC50 0.11) of 1.3 nM.
